# Target: nucleolin (NuP), recombinant human (Homo sapiens) (UniProt P19338)
# Assay: SPR
# Conditions: SPR with recombinant human nucleolin, buffer, salt, pH and temperature not given in the material
# Chain of nucleolin (NuP), recombinant human (Homo sapiens) (P19338 2-710): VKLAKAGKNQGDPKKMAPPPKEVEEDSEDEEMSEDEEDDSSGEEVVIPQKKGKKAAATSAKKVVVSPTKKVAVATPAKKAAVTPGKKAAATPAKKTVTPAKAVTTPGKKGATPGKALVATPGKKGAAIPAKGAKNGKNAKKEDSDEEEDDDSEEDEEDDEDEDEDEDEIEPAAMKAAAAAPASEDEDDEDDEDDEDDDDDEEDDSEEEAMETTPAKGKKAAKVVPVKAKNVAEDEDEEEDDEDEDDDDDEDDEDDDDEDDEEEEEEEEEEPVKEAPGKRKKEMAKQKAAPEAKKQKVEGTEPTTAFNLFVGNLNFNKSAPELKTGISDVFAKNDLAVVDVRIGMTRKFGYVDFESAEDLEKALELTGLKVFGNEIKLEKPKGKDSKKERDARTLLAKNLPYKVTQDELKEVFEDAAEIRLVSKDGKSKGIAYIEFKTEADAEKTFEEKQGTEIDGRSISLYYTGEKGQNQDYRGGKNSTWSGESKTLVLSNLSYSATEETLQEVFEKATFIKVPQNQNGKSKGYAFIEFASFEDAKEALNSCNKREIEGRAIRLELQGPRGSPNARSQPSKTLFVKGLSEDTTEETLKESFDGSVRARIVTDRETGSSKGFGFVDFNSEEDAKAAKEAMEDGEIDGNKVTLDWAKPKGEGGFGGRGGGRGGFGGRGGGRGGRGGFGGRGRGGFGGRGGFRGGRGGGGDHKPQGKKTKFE
Sequence,"Kd (1:1 Langmuir fit, 5' CH2CH2-(OCH2CH2)3-O linker as listed in Table S1, 5' amino form also listed, form used in SPR not stated)",Kd (5' triptolide via acetal ester linker - amino-CH2CH2-(OCH2CH2)3-O-)
GGTGGTGGTGGTTGTGGTGGTGGTGG [AS1411],3.77 nM,
"GGTGGTGGTGGTTGTGGTGGTGGTGG [AS-TP (TP-amino-AS1411, 6a)]",,4.03 nM

# Source: PMC11270970
